Source: US11504432B2, “Delivery system for targeted delivery of a therapeutically active payload” (TECHNISCHE UNIVERSITÄT DRESDEN, priority 2016, dated 2022)
One block for each molecule: values may come before it.

How the values were obtained:
[1] = test system: 293T-Blue^TLR3/PSCA reporter cells; assay: NFkappaB activation, SEAP reporter, PSCA-positive cells; format: cell-based
Protocol: The target delivery of TLR3 agonist Riboxxol® to the endosomal compartment of PSCA-positive cells and the resulting NFkappaB activation and induction of apoptosis by the use of the BIC delivery system was investigated using 293T-Blue^TLR3/PSCA reporter cells. 50.000 293T-Blue^TLR3/PSCA cells in 200 μl HEKBlue detection medium were plated in 96 well plates and treated with increasing concentrations of BICs containing RIBOXXOL® and scFv(h-AM1)-BAP or were treated with BICs containing Riboxxol® and scFv(MR1.1)-BAP, which should not bind to the PSCA-positive target cells. The induced secretion of the reporter SEAP, or its enzymatic activity in HEK Blue medium was measured at 655 nm in an ELISA reader after 24 h. […] […] A plateau of activation is reached at a concentration of the anti-PSCA immunoconjugate at 25 nM. […] Apoptosis levels of treated cells were normalized to untreated 293T-Blue^TLR3/PSCA cells by subtracting basal apoptosis levels from induced apoptosis-levels in the treatment groups.

[2] = test system: 293T^EGFRvIII/c-Luc cells; assay: Luciferase knockdown by scFv-P-BAP guided polyplexes; format: cell-based; conditions: inhibitor added 4 h prior transfection
Protocol: As positive RNAi control, cells were transfected with siLuc3 using the transfection reagent Interferin®. For investigating the route of internalization, endocytose inhibitors 0.6 μg/ml filipin III and 6 μg/ml chlorpromazine (both Sigma Aldrich) were added 4 h prior transfection of cells.

PSCA = molecular target: T1, PSCA (Homo sapiens, UniProt O43653); assay: Binding affinity (KD) by flow cytometry on 293T^PSCA cells; conditions: FIG. 9
T1 construct: expressed in transfected cells; host or cells: 293T^PSCA cells
T1 sequence (O43653 12-83): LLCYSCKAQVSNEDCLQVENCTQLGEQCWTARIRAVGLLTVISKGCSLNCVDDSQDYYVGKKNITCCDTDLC
Protocol: For determination of binding affinity, murine scFv(AM1) and the humanized scFv(h-AM1) were incubated in descending concentrations with 293T^PSCA cells. After detection with a secondary anti-myc-PE-antibody the MFIs were determined using a MACSQuant Cytometer (Miltenyi Biotech) and FlowJo software and the Kd values were calculated with the PRISM software program. FIG. 9 depicts the graphs for the KD value calculations.

293T^PSCA cells = assay: PSCA receptor internalization, FACS; format: cell-based; conditions: crosslinking with scFv plus anti-myc-antibodies, 2 h to 48 h
Protocol: (§1) For studies of EGFRvIII and PSCA internalization, 293T^EGFRvIII and 293T^PSCA cells, respectively, were carefully detached with Trypsin/EDTA solution (Sigma/Aldrich). After repeated washing in 1 mg/ml BSA/PBS, 2×10^5 cells were fed with fresh medium and plated in 96 round bottom wells. Crosslinking of receptors was accomplished by incubation with 1 μg parental scFv specific for the cognate receptor for 1 h at 4° C. followed by extensive washing with PBS and treatment with 0.5 μg of biotin-labelled anti-myc antibody (Miltenyi Biotech) for 10 min at 4° C., followed by extensive washing with PBS and feeding with fresh medium. To achieve a monovalent binding of receptors, the 293T^EGFRvIII and 293T^PSCA cells were incubated only with scFv(MR1.1) and scFv(AM1), respectively, for 1 h at 4° C., followed by extensive washing with PBS and feeding with fresh medium. EGFRvIII surface expression was monitored after incubation at 37° C. in a humidified CO2 incubator after 2 h, 4 h, 8 h, 24 h, and 48 h utilizing an anti-biotin-PE antibody (Miltenyi Biotech) for the crosslinked receptors and incubation of biotinylated anti-myc antibody for 10 min at 4° C. followed by anti-biotin-PE antibody staining for 10 min at 4° C., for cells with monovalent binding of receptors. All obtained data were analyzed by FlowJo software version 7.6.5 (TreeStar Inc., Ashland, USA).

293T^EGFRvIII cells = assay: EGFRvIII receptor internalization, FACS; format: cell-based; conditions: crosslinking with scFv plus anti-myc-antibodies, 2 h to 48 h
Protocol: as §1

EGFRvIII neo-epitope = EGFRvIII neo-epitope (Homo sapiens, UniProt P00533, DELINS30-297G); conditions: cited from earlier work
wild type EGFR = wild type EGFR (Homo sapiens, UniProt P00533); conditions: cited from earlier work
tumors = conditions: in vivo; cited from earlier work
EGFRvIII = molecular target: T2, EGFRvIII (Homo sapiens, UniProt P00533, DELINS30-297G); assay: Flow cytometry binding of scFvs to 293T^EGFRvIII cells; conditions: 1 μg scFv
T2 construct: expressed in transfected cells; host or cells: 293T cells with ectopic EGFRvIII (293T^EGFRvIII)
Protocol: To investigate scFv(MR1.1)-P-BAP binding to EGFRvIII-293T target cells with ectopic expression of the cognate surface receptor, 2×10^5 cells were incubated with 1 μg of recombinant scFv and scFv-P-BAPs, respectively. The bound antibodies were detected either via their myc-epitope using anti-myc/FITC antibody or via their biotin residue using anti-biotin/PE antibody (1:10; Miltenyi Biotec, Bergisch Gladbach, Germany). Cells stained only with secondary antibody were included as a control. […] At least 10,000 stained cells were measured by flow cytometry (MACSQuant, Miltenyi Biotec, Bergisch Gladbach, Germany) and analyzed by FlowJo software version 7.6.5 (TreeStar Inc., Ashland, USA).

avidin = avidin (Gallus gallus, UniProt P02701); assay: Conjugation of biotinylated scFvs to avidin, Western blot; format: binding; conditions: molar ratios from 1:1 to 4:1
Protocol: Conjugation of recombinant biotinylated single chain antibodies was investigated in Western blot experiments. For this 10.7 pmol of recombinant scFv-P-BAP and scFv-BAP was incubated for 30 min at RT with […] as depicted in FIG. 11c for scFv(MR1.1)-P-BAP and FIG. 12 for scFv(MR1.1)-BAP and scFv(h-AM1)-BAP. The avidin/scFv-BAP complexes were subjected to non-reducing SDS-PAGE. After protein transfer onto a Westran PVDF membrane (Whatman GmbH, Dassel, Germany), proteins were detected by a monoclonal murine c-myc-specific antibody (1:5,000, Invitrogen, Carlsbad, USA) and a HRP-labeled rabbit anti-mouse secondary antibody (1:1,000; Dako, Glostrup, Denmark), and after stripping of the membranes by a HRP-conjugated biotin-specific antibody (1:8,000; Sigma-Aldrich, St. Louis, USA). Membranes were visualized and documented using the Luminata Classico Western HRP substrate (Merck Millipore, Darmstadt, Germany) and the imaging system LAS3000 (FujiFilm Europe, Düsseldorf, Germany).

Chain of avidin (P02701 25-152): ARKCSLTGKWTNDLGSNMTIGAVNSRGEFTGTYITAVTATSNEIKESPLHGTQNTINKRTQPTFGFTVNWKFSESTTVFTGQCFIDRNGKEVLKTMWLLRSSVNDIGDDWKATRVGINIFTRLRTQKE

affinity to PSCA compared to parental murine scFv (PSCA): improved affinity
B1: scFv(h-AM1): humanized PSCA-specific scFv with c-Myc-Tag, Bio-Tag BAP and His6, SEQ ID NO: 2 (protein)
scFv: METDTLLLWVLLLWVPGSTGDAAQPARRARRTKLGTELGSEVQLLESGGGLVQPGGSLRLSCVASGFTFSSYTMSWVRQAPGKGLEWVSYIHNGGGHTYYADSVKGRFTISRDNSKNTLYLQMNSLRAEDTAVYYCTRRMYYGNSHWYFDVWGAGTRVTITSAKTTPPSVYGGGGSGGGGSGGGGSTNSDIQMTQSPSSLSASVGDRVTITCRTSQSISNYLNWYQQKPGKAPKLLIYYTLKLNSGVPSRFSGSGSGTDFTLTISSLQPEDFATYYCQQSKTLPWTFGGGTKLEIKRADAAPTVSGPEQKLISEEDLNSAVDMSGLNDIFEAQKIEWHEGAPSSHHHHHH
modifications: Humanized antibody
PSCA internalization (293T^PSCA cells): time-dependent

binding to EGFRvIII-positive 293T^EGFRvIII cells (EGFRvIII): did not recognize
B3: scFv(AM1): murine 7F5-derived single chain antibody fragment specific for prostate stem cell antigen (PSCA) (protein, listed as Mus musculus)
scFv: METDTLLLWVLLLWVPGSTGDAAQPARRARRTKLGTELGSQVKLQESGGGLVQPGGSLKLSCVASGFTFSSYTMSWVRRTPEKRLEWVAYIHNGGGHTYYPDTIKGRFTISRDNAKNTLFLEMSSLKSEDTAMYYCTRRMYYGNSHWYFDVWGAGTSVTVSSAKTTPPSVYGGGGSGGGGSGGGGSTNSDIVMTQSPSSLSASLGDRVTINCRTSQDISNYLNWYQLTPDGTVKLLIYYTLKLNSGVPSRFSGSGSGTDYSLTINNLEKEDFATYFCQQSKTLPWTFGGGTKLEIKRADAAPTVSGPKLSSKLKVTVNGTAYDVDVDVDKSHENPMGTILFGGGTGGAPAPAAGGAGAGKAGEGEIPAPLAGTVSKILVKEGDTVKAGQTVLVLEAMKMETEINAPTDGKVEKVLVKERDAVQGGQGLIKIGDLELIEGSSGPEQKLISEEDLNSAVDHHHHHH

binding to EGFRvIII-positive 293T^EGFRvIII cells (EGFRvIII): bind
conjugation to avidin (avidin): efficiently conjugated
B5: scFv(MR1.1)-P-BAP: scFv(MR1.1) fused to PSTCD biotin acceptor peptide, SEQ ID NO: 3 (protein)
scFv: METDTLLLWVLLLWVPGSTGDAAQPARRARRTKLGTELGSHMQVKLQQSGGGLVKPGASLKLSCVTSGFTFRKFGMSWVRQTSDKRLEWVASISTGGYNTYYSDNVKGRFTISRENAKNTLYLQMSSLKSEDTALYYCTRGYSPYSYAMDYWGQGTTVTVSSSGGGSGGGGSGGGGSDIELTQSPASLSVATGEKATIRCMTSTDIDDDMNWYQQKPGEPPKFLISEGNTLRPGVPSRFSSSGTGTDFVFTIENTLSEDVGDYYCLQSWNVPLTFGDGTKLEITKLSSKLKVTVNGTAYDVDVDVDKSHENPMGTILFGGGTGGAPAPAAGGAGAGKAGEGEIPAPLAGTVSKILVKEGDTVKAGQTVLVLEAMKMETEINAPTDGKVEKVLVKERDAVQGGQGLIKIGDLELIEGSSGPEQKLISEEDLNSAVDHHHHHH
modifications: Single chain antibody fragment

Further lines, the molecule ahead of its results:

Molecule: CN(C)CCCN1c2ccccc2Sc2ccc(Cl)cc21 [chlorpromazine, reference compound]
inhibition of chlatrin-mediated endocytosis of BICs ([1]; 31 μg/ml of chlorpromazine): effectively inhibited

Molecule: CCCCC[C@@H](O)[C@H]1C(=O)O[C@H](C)[C@@H](O)/C=C/C=C/C=C/C=C/C=C(\C)[C@@H](O)C[C@H](O)C[C@H](O)C[C@H](O)C[C@H](O)C[C@H](O)C[C@@H]1O [filipin III, reference compound]
effect of endocytosis inhibitor on delivery of EGFRvIII-specific polyplexes [2]: inhibited
effect on induction of the reporter SEAP by BICs ([1]; 0.3 μg/ml filipin III): slightly weakened induction

B2: scFv(MR1.1): EGFRvIII-specific single chain fragment variable from the literature [30, 31] (protein)
scFv: QVKLQQSGGGLVKPGASLKLSCVTSGFTFRKFGMSWVRQTSDKRLEWVASISTGGYNTYYSDNVKGRFTISRENAKNTLYLQMSSLKSEDTALYYCTRGYSPYSYAMDYWGQGTTVTVSSSGGGSGGGGSGGGGSDIELTQSPASLSVATGEKATIRCMTSTDIDDDMNWYQQKPGEPPKFLISEGNTLRPGVPSRFSSSGTGTDFVFTIENTLSEDVGDYYCLQSWNVPLTFGDGTKLEIT
modifications: left off: small tags and cut ends
EGFRvIII internalization (293T^EGFRvIII cells): time-dependent
affinity to EGFRvIII neo-epitope (EGFRvIII neo-epitope): high affinity
cross-reaction with wild type EGFR (wild type EGFR): does not cross-react
retention in tumors (tumors): excellent retention

B4: scFv(AM1)-P-BAP: scFv(AM1) fused to PSTCD biotin acceptor peptide, SEQ ID NO: 1 (protein, listed as Mus musculus)
scFv: METDTLLLWVLLLWVPGSTGDAAQPARRARRTKLGTELGSQVKLQESGGGLVQPGGSLKLSCVASGFTFSSYTMSWVRRTPEKRLEWVAYIHNGGGHTYYPDTIKGRFTISRDNAKNTLFLEMSSLKSEDTAMYYCTRRMYYGNSHWYFDVWGAGTSVTVSSAKTTPPSVYGGGGSGGGGSGGGGSTNSDIVMTQSPSSLSASLGDRVTINCRTSQDISNYLNWYQLTPDGTVKLLIYYTLKLNSGVPSRFSGSGSGTDYSLTINNLEKEDFATYFCQQSKTLPWTFGGGTKLEIKRADAAPTVSGPKLSSKLKVTVNGTAYDVDVDVDKSHENPMGTILFGGGTGGAPAPAAGGAGAGKAGEGEIPAPLAGTVSKILVKEGDTVKAGQTVLVLEAMKMETEINAPTDGKVEKVLVKERDAVQGGQGLIKIGDLELIEGSSGPEQKLISEEDLNSAVDHHHHHH
binding to EGFRvIII-positive 293T^EGFRvIII cells (EGFRvIII): did not recognize
